Assay results from patent US20160303253A1.

Biological target: Human trophoblast cell-surface antigen (TROP-2) (human) (UniProt P09758)
Test: cell-based or functional assay

Sequence of Human trophoblast cell-surface antigen (TROP-2) (human) (P09758 27-323): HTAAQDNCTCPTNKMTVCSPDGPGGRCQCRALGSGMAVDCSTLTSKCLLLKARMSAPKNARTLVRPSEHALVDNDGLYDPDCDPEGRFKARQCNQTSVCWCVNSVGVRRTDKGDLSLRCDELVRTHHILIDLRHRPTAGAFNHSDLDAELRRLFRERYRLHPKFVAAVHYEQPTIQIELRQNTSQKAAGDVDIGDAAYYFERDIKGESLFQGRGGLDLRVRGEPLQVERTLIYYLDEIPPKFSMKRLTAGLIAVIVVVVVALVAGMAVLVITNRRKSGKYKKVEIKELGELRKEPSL

With hRS7-CL2A-SN-38 (antibody) the ADC/free SN-38 ratio of IC50, in vitro cytotoxicity, BxPC-3 was 2.8, the ADC/free SN-38 ratio of IC50, in vitro cytotoxicity, COLO 205 was 1.91 and the ADC/free SN-38 ratio of IC50, in vitro cytotoxicity, Calu-3 was 1.39. For the same substance, the ADC/free SN-38 ratio of IC50, in vitro cytotoxicity, Capan-1 was 2, the ADC/free SN-38 ratio of IC50, in vitro cytotoxicity, PC-3 was 2.28 and the ADC/free SN-38 ratio of IC50, in vitro cytotoxicity, SK-MES-1 was 2.69.
